Results on eight molecules are retold here after paper PMC10854676, “The Impact of Lens Epithelium-Derived Growth Factor p75 Dimerization on Its Tethering Function” (Cells, 2024).

To fix the notation:
B1: His6-LEDGF_(345–530) (domain or fragment, UniProt O75475 345-530, looked up)
chain: ETSMDSRLQRIHAEIKNSLKIDNLDVNRCIEALDELASLQVTMQQAQKHTEMITTLKKIRRFKVSQVIMEKSTMLYNKFKNMFLVGEGDSVITQVLNKSLAEQRQHEEANKTKDQGKKGPNKKLEKEQTGSKTLNGGSDAQDGNQPQHNGESNEDSKDNHEASTKKKPSSEERETEISLKDSTLDN
notes: the plasmid has a TEV site after the His tag, a cleavage is not reported; source: E. coli BL21(DE3)pLysS, purified (Ni-NTA, heparin); not shown: His6, N-terminal, kept
B4: Flag-LEDGF/p75 E451R-E452R (natural protein)
chain: not shown
notes: LEDGF/p75 with two reverse-charge mutations in the α6-helix; source: E. coli BL21(DE3)pLysS, purified (heparin column, Superdex 75); not shown: Flag, N-terminal, kept

Holding throughout (conditions): both partners purified
Experiment [1] concerns the target T1, Flag-LEDGF/p75 WT (UniProt O75475 1-530).
T1 construct: LEDGF/p75, aa 1-530, from the pCp-NAT-3xFlag-LEDGF WT construct; also called Flag-tagged LEDGF/p75; Flag-LEDGF_(1–530); source: E. coli BL21(DE3)pLysS, purified (heparin column, Superdex 75); not shown: 3xFlag, N-terminal, kept
Description: AlphaScreen or HTRF; competition: 150 nM GST-LEDGF/p75 and 150 nM Flag-LEDGF/p75 outcompeted by increasing concentrations of a third LEDGF construct; apparent IC50. For orientation: Bead proximity is the source of the signal in Alpha formats.

The target in another experiment is T2, Flag-LEDGF_(1–426) (UniProt O75475 1-426).
T2 construct: LEDGF/p75 residues 1-426, truncation missing the complete C-term including the α6-helix; source: E. coli BL21(DE3)pLysS, purified (heparin column, Superdex 75); not shown: Flag, N-terminal, kept
The experiment can be described thus: AlphaScreen or HTRF; direct titration or cross-titration of two differently tagged proteins at nanomolar concentrations (one partner fixed at 100-350 nM); no nuclease; protein batches held DNA at 2 µg/mL or lower.

Experiment [2] addresses T1, Flag-LEDGF/p75 WT. Described as above.
A further experiment addresses T3, GST-LEDGF/p75 (UniProt O75475 1-530).
T3 construct: LEDGF/p75 (lens epithelium-derived growth factor p75), aa 1-530, expressed from pGEX-p75; also called GST-tagged LEDGF/p75; full-length GST-tagged LEDGF/p75; source: E. coli BL21(DE3)pLysS, purified as described before [24]; not shown: GST, N-terminal, kept
Described as above.

Experiment [3] has as its target B4. The experiment is described as above.
The experiment “His6-LEDGF_(345–530)” deals with B1. The description is as above.

Broadly, the IC50 is the concentration needed to halve the response being measured. B1: the 50% inhibitory concentration (IC50) with Flag-LEDGF/p75 WT [1] worked out at 222 nM. Further, in the experiment with Flag-LEDGF_(1–426), the “fold stronger binding than the mutants E451A and N454A-K455A” value is roughly 2 fold.

B2: His6-LEDGF_(345–530) N454A-K455A (domain or fragment, UniProt O75475 345-530, looked up)
chain: ETSMDSRLQRIHAEIKNSLKIDNLDVNRCIEALDELASLQVTMQQAQKHTEMITTLKKIRRFKVSQVIMEKSTMLYNKFKNMFLVGEGDSVITQVLNKSLAEQRQHEEAAATKDQGKKGPNKKLEKEQTGSKTLNGGSDAQDGNQPQHNGESNEDSKDNHEASTKKKPSSEERETEISLKDSTLDN
notes: source: E. coli BL21(DE3)pLysS, purified (Ni-NTA, heparin); not shown: His6, N-terminal, kept
Regarding B2, the binding result in the experiment with Flag-LEDGF/p75 WT [2] and with Flag-LEDGF_(1–426) was “binds” in each case.

B3: His6-LEDGF_(345–530) E451A (domain or fragment, UniProt O75475 345-530, looked up)
chain: ETSMDSRLQRIHAEIKNSLKIDNLDVNRCIEALDELASLQVTMQQAQKHTEMITTLKKIRRFKVSQVIMEKSTMLYNKFKNMFLVGEGDSVITQVLNKSLAEQRQHAEANKTKDQGKKGPNKKLEKEQTGSKTLNGGSDAQDGNQPQHNGESNEDSKDNHEASTKKKPSSEERETEISLKDSTLDN
notes: as for B2
Turning to B3, the binding result in the experiment with Flag-LEDGF/p75 WT [2] and with Flag-LEDGF_(1–426) was “binds” each time.

With B4, the binding result with GST-LEDGF/p75 is “binds”.

B5: MLL1_(1–160)-GST (domain or fragment, UniProt Q03164 1-160, looked up)
chain: MAHSCRWRFPARPGTTGGGGGGGRRGLGGAPRQRVPALLLPPGPPVGGGGPGAPPSPPAVAAAAAAAGSSGAGVPGGAAAASAASSSSASSSSSSSSSASSGPALLRVGPGFDAALQVSAAIGTNLRRFRAVFGESGGGGGSGEDEQFLGFGSDEEVRVR
notes: MLL1 residues 1-160; also called MLL1_(1–160) fragment; not shown: GST, C-terminal, kept
Turning to B5, the binding result (with Flag-LEDGF/p75 WT [2]; in experiment [3]; in the experiment with Flag-LEDGF_(1–426)) was “binds” in each case.

B6: MBP-LEDGF_(325–426) (domain or fragment, UniProt O75475 325-426, looked up)
chain: EQQNKDEGKKPEVKKVEKKRETSMDSRLQRIHAEIKNSLKIDNLDVNRCIEALDELASLQVTMQQAQKHTEMITTLKKIRRFKVSQVIMEKSTMLYNKFKNM
notes: source: E. coli BL21(DE3)pLysS, purified (amylose resin); not shown: MBP, N-terminal, kept
For the molecule B6, the binding result with His6-LEDGF_(345–530) is “binds”.

B7: His6-LEDGF/p52 (natural protein)
chain: not shown
notes: lacks the IBD and C-term; also called His6-tagged LEDGF/p52; source: E. coli BL21(DE3)pLysS, purified (Ni-NTA, heparin); not shown: His6, N-terminal, kept
Consider B7, for which the IC50 with Flag-LEDGF/p75 WT [1] was determined as 12.2 nM.

B8: His6-LEDGF_(1–426) (domain or fragment)
chain: not shown
notes: LEDGF/p75 residues 1-426 (lacks the C-term with the α6-helix); elsewhere LEDGF1-426 is Flag-tagged; source: E. coli BL21(DE3)pLysS, purified (Ni-NTA, heparin); not shown: His6, N-terminal, kept
B8: the IC50 with Flag-LEDGF/p75 WT [1] came to 65.5 nM.
